This is an account of results in US20230052369A1 (Zymeworks, published 2023).

Assay [1] deals with T1, recombinant His-tagged human FRα (human, UniProt P15328 25-234).
T1 construct: Bought protein; also called hFRα; FRα-HIS
Nature of the assay: BLI, n=2. On the technique in general: In BLI a coated tip is dipped into the sample, and binding shifts an interference pattern.
Description: The assay buffer used was KB buffer (kinetics buffer, composed of PBS pH 7.4, 0.1% BSA, 0.02% Tween 20, 0.05% sodium azide) supplemented with 0.06% Tween 20. The experiment was conducted at 25° C. with a shake speed of 1000 rpm.
Data analysis was performed using the Data analysis software 9.0′ (ForteBio). The reference-subtracted binding curves were globally fitted to the 1:1 interaction model to generate the binding kinetic parameters kₒₙ, koff, and the dissociation constant KD.
All parameters remained the same except for the dissociation phase which was recorded for 1500 s.

The target of assay [2] is T2, purified human monomeric 4-1BB (human, UniProt Q07011 24-186).
T2 construct: the assay used the 4-1BB part released by Factor Xa with the Fc removed; also called h4-1BB; human 4-1BB
Nature of the assay: SPR, Ab captured, monomeric 4-1BB injected. (In SPR one partner is held on a chip, and binding of the other changes the refractive index at the surface.)
Description: The anti-human Fc surface was prepared on a CMS Series S sensorchip by standard amine coupling methods as described by the manufacturer (GE Healthcare). Briefly, immediately after EDC/NHS activation, a 25 μg/mL solution of anti-human Fc in 10 mM NaOAc pH 4.5 was injected at a flow rate of 10 μL/min for 420 s until approximately 2000 resonance units (RUs) were immobilized on all four flow cells. The remaining active groups were quenched by a 420 s injection of 1M ethanolamine at 10 μL/min.
Antibodies for analysis were captured onto the anti-Fc surface by injecting 5 μg/mL solutions at a flow rate of 10 μL/min for 60 s. Using single-cycle kinetics, five concentrations of a two-fold dilution series of 4-1BB starting at 40 nM (for both supernatant and purified antibody runs) with a blank buffer control were sequentially injected at 40 μL/min for 180 s with a 600 s dissociation phase, resulting in a set of sensorgrams with a buffer blank reference. Experiments were performed at a constant temperature of 25° C. The anti-human Fc surfaces were regenerated to prepare for the next injection cycle by one pulse of 10 mM Glycine/HCl pH 1.5 for 120 s at 40 μL/min. Blank-subtracted sensorgrams were analyzed using Biacore™ T200 Evaluation Software v3.0. The blank-subtracted sensorgrams were then fit to the 1:1 Langmuir binding model.
Variants purified by SEC were assessed for binding to human 4-1BB.

Assay [3] deals with T3, full-length human FRα, on 293E cells (human, UniProt P15328 25-234).
T3 construct: also called folate receptor alpha; FOLR1
Briefly: flow cytometry, 293E cells expressing FRα. For orientation: A flow cytometer gives signals particle by particle.
Description: Antibodies were diluted in 50 μl FB (PBS 2% FCS) 1:3 from stock in wells of a 96 V-well plate, and cells added on top. The cells were then left on ice for 30 minutes for the antibodies to bind. The cells were then washed twice in FB, and incubated in 50 μl FB containing 2 μg/ml goat anti-human Alexa647 antibody (Jackson Immunoresearch). The cells were then left on ice for a further 20 minutes, washed twice in FB, resuspended in 100 μl FB and analyzed on a BD Fortessa™ X20. The subsequent data files were analyzed using FlowJo™ and Prism 7 (GraphPad).

Numbering of substitutions follows the chain as printed. Names may count otherwise.

T1 sequence (P15328 25-234 limits assumed): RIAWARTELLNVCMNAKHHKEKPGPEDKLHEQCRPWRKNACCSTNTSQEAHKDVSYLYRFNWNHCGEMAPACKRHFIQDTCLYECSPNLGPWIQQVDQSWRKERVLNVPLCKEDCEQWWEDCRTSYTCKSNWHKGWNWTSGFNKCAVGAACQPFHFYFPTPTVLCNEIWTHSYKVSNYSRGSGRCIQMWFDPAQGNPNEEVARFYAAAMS
T3 sequence (P15328 25-234 limits assumed): as above
T2 sequence (Q07011 other isoform, or with tags, fused parts or gaps limits assumed): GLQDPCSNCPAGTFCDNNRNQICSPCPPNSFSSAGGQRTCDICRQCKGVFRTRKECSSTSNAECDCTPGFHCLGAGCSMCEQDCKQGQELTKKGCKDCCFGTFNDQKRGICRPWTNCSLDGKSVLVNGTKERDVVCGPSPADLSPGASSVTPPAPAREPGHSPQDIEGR

B1: v29682 (scFv)
scFv: DIQMTQSPSSLSASVGDRVTITCQASQSIYSSLAWYQQKPGKAPKLLIYDASHLASGVPSRFSGSRYGTDFTLTISSVQPEDFATYYCQGGWYSSAATYVPNTFGCGTKVEVKGGGGSGGGGSGGGGSEVQLVESGGGLVQPGGSLRLSCAASGFTISNNYYMCWVRQAPGKCLEWIACIYGGISGRTYYADSAKGRFTISKDSSNTVYLQMNSLRAEDTAVYYCVRGYVGTSNLWGQGTLVTVSS
notes: One-armed, scFv at the C-terminus of Het FcA; VL-G100C and VH-G44C (Kabat) already in the entry; also called C-term VL-(short)-VH + disulfide
The term Kd denotes the constant that tells how readily two partners part at equilibrium. As for B1, in assay [1], the Kd turned out to be 2.1 nM.

B2: v29678 (scFv)
scFv: B1 scFv with C106G, C173G
notes: also called C-term VL-(short)-VH
As to B2, the Kd in assay [1] is 5.1 nM.

B3: v23662 (bispecific antibody, human IgG1, kappa, L234A L235A)
heavy 1: QVQLKQSGPGLVQPSQSLSITCTVSGFSLTSYGVHWVRQSPGKGLEWLGVIWSGGSTDYNAAFISRLSISKDNSKSQVFFKMNSLQADDTAIYYCARNPLTATVMDYWGQGTSVTVSSASTKGPSVFPLAPSSKSTSGGTAALGCLVKDYFPEPVTVSWNSGALTSGVHTFPAVLQSSGLYSLSSVVTVPSSSLGTQTYICNVNHKPSNTKVDKKVEPKSCDKTHTCPPCPAPEAAGGPSVFLFPPKPKDTLMISRTPEVTCVVVSVSHEDPEVKFNWYVDGVEVHNAKTKPREEQYNSTYRVVSVLTVLHQDWLNGKEYKCKVSNKALPAPIEKTISKAKGQPREPQVYVYPPSRDELTKNQVSLTCLVKGFYPSDIAVEWESNGQPENNYKTTPPVLDSDGSFALVSKLTVDKSRWQQGNVFSCSVMHEALHNHYTQKSLSLSPGGGGGDIVMTQTPSSVSAAVGGTVTIKCQASQTIGSSLAWYQQKPGQPPKLLIYRASTLASGVSSRFRGSGSGTEYTLTISDLECADAATYYCQWTDYGYIYIWAFGGGTEVVVKGGGGSGGGGSGGGGSQEQLVESGGGLVQPEGSLTLTCTASKFSFSSLYYMCWVRQAPGKGLEWIACVYGGSSGNTYYASWAKGRFTISKASSTTVTLQLTSLTAADTATYFCARFDVDGSGFNLWGPGTLVTVSS
heavy 2: QVQLKQSGPGLVQPSQSLSITCTVSGFSLTSYGVHWVRQSPGKGLEWLGVIWSGGSTDYNAAFISRLSISKDNSKSQVFFKMNSLQADDTAIYYCARNPLTATVMDYWGQGTSVTVSSASTKGPSVFPLAPSSKSTSGGTAALGCLVKDYFPEPVTVSWNSGALTSGVHTFPAVLQSSGLYSLSSVVTVPSSSLGTQTYICNVNHKPSNTKVDKKVEPKSCDKTHTCPPCPAPEAAGGPSVFLFPPKPKDTLMISRTPEVTCVVVSVSHEDPEVKFNWYVDGVEVHNAKTKPREEQYNSTYRVVSVLTVLHQDWLNGKEYKCKVSNKALPAPIEKTISKAKGQPREPQVYVLPPSRDELTKNQVSLLCLVKGFYPSDIAVEWESNGQPENNYLTWPPVLDSDGSFFLYSKLTVDKSRWQQGNVFSCSVMHEALHNHYTQKSLSLSPG
light: DIVMTQSQKFMSTSVGDRVSVTCKASQNVGTNVAWYQQKPGQSRTVLIYSASYRHSGVPDRFTGSGSGTDFTLTISNVQSEDLAEYFCQQYNSYPLTFGTGTKLELKRTVAAPSVFIFPPSDEQLKSGTASVVCLLNNFYPREAKVQWKVDNALQSGNSQESVTEQDSKDSTYSLSSTLTLSKADYEKHKVYACEVTHQGLSSPVTKSFNRGEC
notes: also called 2E8 x 1H06 (VLVH) 2x1
With B3, the Kd in assay [2] is 155 nM.

B4: v29681 (scFv)
scFv: EVQLVESGGGLVQPGGSLRLSCAASGFTISNNYYMCWVRQAPGKGLEWIACIYGGISGRTYYADSAKGRFTISKDSSNTVYLQMNSLRAEDTAVYYCVRGYVGTSNLWGQGTLVTVSSGGSGGGSGGGSGGGSGGGSGDIQMTQSPSSLSASVGDRVTITCQASQSIYSSLAWYQQKPGKAPKLLIYDASHLASGVPSRFSGSRYGTDFTLTISSVQPEDFATYYCQGGWYSSAATYVPNTFGGGTKVEVK
notes: One-armed, scFv at the C-terminus of Het FcA (GGGG linker); also called C-term VH-(long)-VL
For the molecule B4, the Kd in assay [1] worked out at 2.6 nM.

B5: v29685 (scFv)
scFv: B4 scFv with G45C, G244C
notes: One-armed, scFv at the C-terminus of Het FcA; VL-G100C and VH-G44C already in the entry; also called C-term VH-(long)-VL + disulfide
B5: the Kd in assay [1] worked out at 4.2 nM.

B6: v29679 (scFv)
scFv: EVQLVESGGGLVQPGGSLRLSCAASGFTISNNYYMCWVRQAPGKGLEWIACIYGGISGRTYYADSAKGRFTISKDSSNTVYLQMNSLRAEDTAVYYCVRGYVGTSNLWGQGTLVTVSSGGGGSGGGGSGGGGSDIQMTQSPSSLSASVGDRVTITCQASQSIYSSLAWYQQKPGKAPKLLIYDASHLASGVPSRFSGSRYGTDFTLTISSVQPEDFATYYCQGGWYSSAATYVPNTFGGGTKVEVK
notes: One-armed, scFv at the C-terminus of Het FcA (GGGG linker); also called C-term VH-(short)-VL
On to B6, for which, in assay [1], the dissociation constant (Kd) worked out at 0.39 nM.

B7: v29683 (scFv)
scFv: B6 scFv with G45C, G239C
notes: One-armed, scFv at the C-terminus of Het FcA; VL-G100C and VH-G44C already in the entry; also called C-term VH-(short)-VL + disulfide
Take B7: the Kd in assay [1] worked out at 1.1 nM.

B8: v23660 (bispecific antibody, human IgG1, kappa, L234A L235A)
heavy 1: QVQLKESGPGLVAPSQSLSITCTVSGFSLTSYAISWVRQPPGKGLEWLGVIWPGGGTNYNSALKSRLSISKDNSKSQVFLKMNSLQTDDTARYYCARGTGTWYFDVWGAGTTVTVSSASTKGPSVFPLAPSSKSTSGGTAALGCLVKDYFPEPVTVSWNSGALTSGVHTFPAVLQSSGLYSLSSVVTVPSSSLGTQTYICNVNHKPSNTKVDKKVEPKSCDKTHTCPPCPAPEAAGGPSVFLFPPKPKDTLMISRTPEVTCVVVSVSHEDPEVKFNWYVDGVEVHNAKTKPREEQYNSTYRVVSVLTVLHQDWLNGKEYKCKVSNKALPAPIEKTISKAKGQPREPQVYVYPPSRDELTKNQVSLTCLVKGFYPSDIAVEWESNGQPENNYKTTPPVLDSDGSFALVSKLTVDKSRWQQGNVFSCSVMHEALHNHYTQKSLSLSPGGGGGDIVMTQTPASVEAAVGGTVTIKCQASQSIYSSLAWYQQKPGQSPKLLIYDASHLASGVPSRFSGSRYGTEFTLTISGVQCDDAATYYCQGGWYSSAATYVPNTFGGGTEVVVKGGGGSGGGGSGGGGSQEQLVESGGGLVQPEGSLTLTCKASGFTISNNYYMCWVRQAPGKGLEWIACIYGGISGRTYYASWAKGRFTISKTSSTTVTLQMTSLTAADTATYFCVRGYVGTSNLWGPGTLVTVSS
heavy 2: QVQLKESGPGLVAPSQSLSITCTVSGFSLTSYAISWVRQPPGKGLEWLGVIWPGGGTNYNSALKSRLSISKDNSKSQVFLKMNSLQTDDTARYYCARGTGTWYFDVWGAGTTVTVSSASTKGPSVFPLAPSSKSTSGGTAALGCLVKDYFPEPVTVSWNSGALTSGVHTFPAVLQSSGLYSLSSVVTVPSSSLGTQTYICNVNHKPSNTKVDKKVEPKSCDKTHTCPPCPAPEAAGGPSVFLFPPKPKDTLMISRTPEVTCVVVSVSHEDPEVKFNWYVDGVEVHNAKTKPREEQYNSTYRVVSVLTVLHQDWLNGKEYKCKVSNKALPAPIEKTISKAKGQPREPQVYVLPPSRDELTKNQVSLLCLVKGFYPSDIAVEWESNGQPENNYLTWPPVLDSDGSFFLYSKLTVDKSRWQQGNVFSCSVMHEALHNHYTQKSLSLSPG
light: DIQMTQTTSSLSASLGDRVTISCSASQGISNYLNWYQQKPDGTVKLLIYYTSSLHSGVPSRFSGSGSGTDYSLTISNLEPEDIATYYCQQYSDLPWTFGGGTKLEIKRTVAAPSVFIFPPSDEQLKSGTASVVCLLNNFYPREAKVQWKVDNALQSGNSQESVTEQDSKDSTYSLSSTLTLSKADYEKHKVYACEVTHQGLSSPVTKSFNRGEC
notes: also called 6B3 x 8K22 (VLVH) 2x1
In the case of B8, in assay [3], the binding result is “binds”. In assay [2], this molecule had a Kd of 364 nM.

B9: v23651 (bispecific antibody, human IgG1, kappa, L234A L235A)
heavy 1: QVQLKESGPGLVAPSQSLSITCTVSGFSLTTYAISWVRQPPGKGLEWLGIIWPGGGTNYNSALKSRLSISKDNSRSQVFLKMNSLQTDDTARYYCARGAGTWYFDVWGAGTTVTVSSASTKGPSVFPLAPSSKSTSGGTAALGCLVKDYFPEPVTVSWNSGALTSGVHTFPAVLQSSGLYSLSSVVTVPSSSLGTQTYICNVNHKPSNTKVDKKVEPKSCDKTHTCPPCPAPEAAGGPSVFLFPPKPKDTLMISRTPEVTCVVVSVSHEDPEVKFNWYVDGVEVHNAKTKPREEQYNSTYRVVSVLTVLHQDWLNGKEYKCKVSNKALPAPIEKTISKAKGQPREPQVYVYPPSRDELTKNQVSLTCLVKGFYPSDIAVEWESNGQPENNYKTTPPVLDSDGSFALVSKLTVDKSRWQQGNVFSCSVMHEALHNHYTQKSLSLSPGGGGGQVQLVQSGAEVVKPGASVKISCKASGYTFTGYFMNWVKQSPGQSLEWIGRIHPYDGDTFYNQKFQGKATLTVDKSSNTAHMELLSLTSEDFAVYYCTRYDGSRAMDYWGQGTTVTVSSGGGGSGGGGSGGGGSDIVLTQSPLSLAVSLGQPAIISCKASQSVSFAGTSLMHWYHQKPGQQPRLLIYRASNLEAGVPDRFSGSGSKTDFTLTISPVEAEDAATYYCQQSREYPYTFGGGTKLEIK
heavy 2: B8 heavy 2 with S31T, V50I, K75R, T99A
light: B8 light with T7S, L15V, D93K, L94F
notes: also called 1C8 x Mirvetuximab (scFv) 2x1
Regarding B9, the binding result in assay [3] was “binds”.

B10: v23656 (bispecific antibody, human IgG1, kappa, L234A L235A)
heavy 1: B8 heavy 1 with S31T, V50I, K75R, T99A
heavy 2: B8 heavy 2 with S31T, V50I, K75R, T99A
light: B8 light with T7S, L15V, D93K, L94F
notes: Two 4-1BB Fabs, one FRα scFv at the C-terminus of one heavy chain; also called 1C8 x 8K22 (VLVH) 2x1
For the molecule B10, in assay [3], the binding result is “binds”. In assay [2], this molecule came in with a Kd of 480 nM.

B11: v23658 (bispecific antibody, human IgG1, kappa, L234A L235A)
heavy 1: B8 heavy 1 with S35N, I51L, T99S
heavy 2: B8 heavy 2 with S35N, I51L, T99S
light: B8 light with I21F, S56L, D93K
notes: also called 4E6 x 8K22 (VLVH) 2x1
Turning to B11, in assay [3], the binding result is “binds”. This molecule also showed a Kd in assay [2] of 499 nM.

B12: v29677 (scFv)
scFv: DIQMTQSPSSLSASVGDRVTITCQASQSIYSSLAWYQQKPGKAPKLLIYDASHLASGVPSRFSGSRYGTDFTLTISSVQPEDFATYYCQGGWYSSAATYVPNTFGGGTKVEVKGGSGGGSGGGSGGGSGGGSGEVQLVESGGGLVQPGGSLRLSCAASGFTISNNYYMCWVRQAPGKGLEWIACIYGGISGRTYYADSAKGRFTISKDSSNTVYLQMNSLRAEDTAVYYCVRGYVGTSNLWGQGTLVTVSS
notes: One-armed, scFv at the N-terminus of Het FcA (Ala-Ala linker); also called N-term VL-(long)-VH
In the case of B12, the dissociation constant (Kd) in assay [1] worked out at 5 nM.

B13: v29680 (scFv)
scFv: B12 scFv
notes: One-armed, scFv at the C-terminus of Het FcA (GGGG linker); also called C-term VL-(long)-VH
Turning to B13, the Kd in assay [1] turned out to be 1.8 nM.

B14: v29684 (scFv)
scFv: B12 scFv with G106C, G178C
notes: One-armed, scFv at the C-terminus of Het FcA; VL-G100C and VH-G44C already in the entry; also called C-term VL-(long)-VH + disulfide
On to B14, for which the Kd in assay [1] was 0.88 nM.
